Laboratory results reported in article PMC11082193, “Enzymatic synthesis of mono- and trifluorinated alanine enantiomers expands the scope of fluorine biocatalysis” (Communications Chemistry, 2024).

How the values were obtained:
[1] = molecular target: T1, SlALR (Streptomyces lavendulae, UniProt Q65YW7); assay: HPLC of released pyruvate; format: biochemical; conditions: beta-elimination of fluoride; 10 mM substrate, 0.02 or 0.1 μM enzyme, 50 μM pyridoxal 5'-phosphate, pH 8.0, 30 °C, 18 h
T1 construct: gene alr; expressed in E. coli BL21(DE3), Ni-NTA purified
T1 sequence (Q65YW7 2-378): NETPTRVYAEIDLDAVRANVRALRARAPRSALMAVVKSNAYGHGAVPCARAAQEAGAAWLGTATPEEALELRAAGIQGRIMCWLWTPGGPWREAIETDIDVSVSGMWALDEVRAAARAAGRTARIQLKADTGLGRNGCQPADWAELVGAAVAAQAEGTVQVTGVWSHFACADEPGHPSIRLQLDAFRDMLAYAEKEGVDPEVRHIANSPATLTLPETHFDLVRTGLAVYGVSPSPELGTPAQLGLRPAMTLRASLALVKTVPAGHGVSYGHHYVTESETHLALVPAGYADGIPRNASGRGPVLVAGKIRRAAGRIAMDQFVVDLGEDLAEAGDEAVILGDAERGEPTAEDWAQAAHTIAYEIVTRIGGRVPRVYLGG

[2] = molecular target: T2, NAD-PseFDH (Pseudomonas sp. 101, UniProt P33160); assay: FDH activity assay with formate; format: biochemical
T2 construct: N-terminal His6 tag followed by TEV site (His6 purified); source plasmid pZ-ASL; expressed in E. coli BL21(DE3)
T2 sequence (P33160 2-401): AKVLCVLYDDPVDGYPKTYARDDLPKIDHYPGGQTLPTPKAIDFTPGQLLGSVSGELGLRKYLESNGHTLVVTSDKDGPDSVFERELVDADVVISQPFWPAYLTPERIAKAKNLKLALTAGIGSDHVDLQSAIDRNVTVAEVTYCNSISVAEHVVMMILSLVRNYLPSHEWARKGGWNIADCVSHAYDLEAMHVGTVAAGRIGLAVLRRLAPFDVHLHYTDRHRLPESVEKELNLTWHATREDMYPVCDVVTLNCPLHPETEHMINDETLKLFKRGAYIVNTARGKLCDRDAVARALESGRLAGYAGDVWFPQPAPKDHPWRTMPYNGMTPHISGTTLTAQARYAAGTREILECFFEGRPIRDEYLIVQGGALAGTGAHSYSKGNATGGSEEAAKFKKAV

[3] = test system: CC(=O)C(=O)O; assay: purified protein; format: biochemical, Vibrio proteolyticus; conditions: reductive amination, 0.5 mM NADH, 200 mM NH4Cl, 50 mM sodium phosphate pH 8.0, 30 °C
[4] = test system: O=C(O)C(=O)CF; assay: purified protein; format: biochemical, Vibrio proteolyticus; conditions: reductive amination, 0.5 mM NADH, 200 mM NH4Cl, 50 mM sodium phosphate pH 8.0, 30 °C
[5] = substrate: O=C(O)C(=O)CF; assay: purified protein; format: biochemical, Symbiobacterium thermophilum; conditions: reductive amination, 0.5 mM NADPH, 200 mM NH4Cl, 50 mM sodium phosphate pH 8.0, 30 °C
[6] = substrate: CC(=O)C(=O)O; assay: purified protein; format: biochemical, Symbiobacterium thermophilum; conditions: reductive amination, 0.5 mM NADPH, 200 mM NH4Cl, 50 mM sodium phosphate pH 8.0, 30 °C

N[C@@H](CF)C(=O)O [(R)-FAla, (R)-3-fluoroalanine]
HPLC of released pyruvate [1]: (R)-FAla and (S)-FAla were transformed by ^SlALR into Pyr

NC(=O)c1ccc[n+]([C@@H]2O[C@H](COP(=O)(O)OP(=O)(O)OC[C@H]3O[C@@H](n4cnc5c(N)ncnc54)[C@H](O)[C@@H]3O)[C@@H](O)[C@H]2O)c1 [NAD^+]
FDH activity assay with formate ([2]; formate as co-substrate): confirmed the high specificity for either cofactor of the purified NAD-^PseFDH and NADP-^PseFDH enzymes

N[C@H](CF)C(=O)O [(S)-FAla, (S)-3-fluoroalanine]
HPLC of released pyruvate [1]: (R)-FAla and (S)-FAla were transformed by ^SlALR into Pyr

O=CO [formate]
FDH activity assay with formate ([2]; NAD+ as co-substrate): the functionality of both ^PseFDH enzymes was verified on formate

VpALD (Vibrio proteolyticus)
Km [3]: 0.29 ± 0.04 mM | Vmax [3]: 247 µmol/min/mg | kcat [3]: 173 ± 8 s⁻¹ | kcat/Km [3]: 597000 M⁻¹ s⁻¹ | Km [4]: 0.18 ± 0.02 mM | Vmax [4]: 11.9 µmol/min/mg | kcat [4]: 8.3 ± 0.3 s⁻¹ | kcat/Km [4]: 46100 M⁻¹ s⁻¹

B1: StDAPDH (Symbiobacterium thermophilum IAM 14863) (protein)
chain: DKLRVAVVGYGNVGRYALEAVQAAPDMELVGVVRRKVLAATPPELTGVRVVTDISQLEGVQGALLCVPTRSVPEYAEAMLRRGIHTVDSYDIHGDLADLRRRLDPVAREHGAAAVISAGWDPGTDSIIRALLEFMAPKGITYTNFGPGMSMGHSVAVKAIPGVRDALSMTIPAGMGVHKRAVYVELEPGADFAEVERAIKTDPYFVRDETRVTQVESVSALMDVGHGVVMERKGVSGATHNQLFRFEMRINNPALTAQVMVAALRAAARQKPGCYTMIEIPVIDYLPGDREAWIRKLV
notes: expressed in E. coli BL21(DE3), Ni-NTA purified
Km [5]: 14.0 ± 0.6 mM | Vmax [5]: 0.161 µmol/min/mg | kcat [5]: 0.093 ± 0.001 s⁻¹ | kcat/Km [5]: 6.6 M⁻¹ s⁻¹ | Km [6]: 6.7 ± 0.3 mM | Vmax [6]: 1.81 µmol/min/mg | kcat [6]: 1.05 ± 0.01 s⁻¹ | kcat/Km [6]: 160 M⁻¹ s⁻¹
